Laboratory results from patent US20220235344A1, “TRYPSIN VARIANTS WITH IMPROVED ENZYMATIC PROPERTIES” (BIOPHARMA TRANSLATIONSINSTITUT DESSAU FORSCHUNGS GMBH, priority 2018, published 2022).

T1: H-RAHAK(DNP)-OH
T1 chain: RAHAK

B1: Trypsiligase II (trypsin variant Y39H/Y59H/K60E/D189K) (protein)
chain: IVGGYTCQENSVPYQVSLNSGHHFCGGSLINDQWVVSAAHCHESRIQVRLGEHNINVLEGNEQFVNAAKIIKHPNFDRKTLNNDIMLIKLSSPVKLNARVATVALPSSCAPAGTQCLISGWGNTLSSGVNEPDLLQCLDAPLLPQADCEASYPGKITDNMVCVGFLEGGKKSCQGDSGGPVVCNGELQGIVSWGYGCALPDNPGVYTKVCNYVDWIQDTIAAN
B2: A2C8: Trypsiligase II + H40F, A55A, R96E, K97D, L99F, N143E, E151Y, S190V, Q192A, S214G, G219Q, A221T (protein)
chain: IVGGYTCQENSVPYQVSLNSGHFFCGGSLINDQWVVSAAHCHESRIQVRLGEHNINVLEGNEQFVNAAKIIKHPNFDEDTFNNDIMLIKLSSPVKLNARVATVALPSSCAPAGTQCLISGWGETLSSGVNYPDLLQCLDAPLLPQADCEASYPGKITDNMVCVGFLEGGKKVCAGDSGGPVVCNGELQGIVGWGYQCTLPDNPGVYTKVCNYVDWIQDTIAAN

Legend:
H-RAHAK(DNP)-OH = target: T1, H-RAHAK(DNP)-OH
[1] = tested on: Bz PGGXaaXaaXaaHAG-OH / H-XaaXaaXaaAK(DNP)-OH (recognition sequences YRRH, YMKH, RMKH); test: Time course of transamidation by A2C8_H39Y/H59Y/E60K/K189D and wild-type trypsin (FIG. 5); assay type: biochemical; settings: comparison value for A2C8
Procedure: FIG. 5: Time course of the product formation for a transamidation reaction catalyzed by the variant A2C8_H39Y/H59Y/E60K/K189D as well as the wild-type Trypsin in correlation to various peptide substrates. Reaction conditions: 100 μM acyl donor (Bz PGGXaaXaaXaaHAG-OH), 200 μM acyl acceptor (H-XaaXaaXaaAK(DNP)-OH), 10 μM trypsin variant A2C8_H39Y/H59Y/E60K/K189D or 2.5 nM anionic rat trypsin II, 100 mM HEPES/NaOH pH 7.8, 0.1 mM ZnCl2, 100 mM NaCl, 10 mM CaCl2, T=30° C. UPLC analysis: Waters Acquity Ultra Performance LC, C18-column, gradient 5-60% acetonitrile, 5 min, detection at 360 nm.
The three substrates with the highest apparent turnover rate for the aminolysis reaction were then used for investigating the synthesis behavior of variant A2C8_H39Y/H59Y/E60K/K189D. In FIG. 5 the time course of product formation for a transamidation reaction catalyzed by variant A2C8_H39Y/H59Y/E60K/K189D with various peptide substrates is illustrated.

[2] = tested on: anti-Her2-Fab-LC_RRKHAK(CF)/HC_YRAH (YRAH at heavy chain); test: Orthogonal dual-modification of Her2-specific Fab-fragment, second step (heavy chain, DM1); assay type: biochemical
From the text: FIG. 6: Dual modification of a Fab-fragment by utilizing variation in substrate specificity of two Trypsiligase II variants. The HER2-specific Fab-fragment of Trastuzumab (anti-Her2-Fab-LC_RRKH/HC_YRAH, Heavy chain (SEQ ID NO: 2) and anti-Her2-Fab-LC_RRKH/HC_YRAH, Light chain (SEQ ID NO: 3)) was used and the respective recognition sequences genetically introduced. A) Trypsiligase II variant K7F11_H39Y/H59Y/K189D which recognizes the sequence RRKH was used in the first step for attachment of a carboxyfluorescein(CF)-bearing nucleophile. B) In the second step Trypsiligase II variant A2C8 which recognizes the sequence YRAH was used for modification with a nucleophile covalently bound to mertansine (DM1). Analysis by LC-MS. The amount of modified and unmodified Fab-fragment species for the first and second modification step are shown in MS spectrum A and B, respectively. […]
The second modification reaction of the heavy chain was performed in a solution containing 50 μM of the single modified aHer2-Fab-LC_RRKHAK(CF)/HC_YRAH, 1000 μM H-RKKAK(MCC-DM1)-OH, 5 μM A2C8, 100 mM HEPES/NaOH pH 7.8, 100 mM NaCl. […] The proportions of modified and unmodified Fab-fragment species for the first and second modification step were analyzed by LC-MS (see example 1). […] No modification upon the recognition sequence at the heavy chain had been monitored.

Molecule | KM, acyl acceptor (µM); zinc ions (100 µM): no; transamidation with 250 µM Bz-PGGYRAHAG-OH as acyl donor (H-RAHAK(DNP)-OH) | KM, acyl acceptor (µM); zinc ions (100 µM): yes; transamidation with 250 µM Bz-PGGYRAHAG-OH as acyl donor (H-RAHAK(DNP)-OH) | fold increase of KM of the nucleophilic peptide without zinc ions against with zinc ions (H-RAHAK(DNP)-OH) | product yield at comparable conditions [1] | yield of dual labeled Fab-fragment ([2]; estimated by mass spectrometry) | site of modification, second step ([2]; mass spectrometry)
B1 | 1630 µM | 144 µM | increased by a factor of 11 to 1630 µM |  |  | 
B2 |  |  |  | 59% | approximately 75% | exclusively modification at the C-terminal end of the heavy chain
